According to patent US20110223163A1 (US Dept. of Health and Human Services, published 2011):

Experiments:
[1] = target: synthetic 10-mer peptide of γ-D-glutamic acids
[2] = target: BSA (UniProt P02769 25-607); assay: ELISA, full-length IgG
Chain of BSA (P02769 25-607 limits assumed): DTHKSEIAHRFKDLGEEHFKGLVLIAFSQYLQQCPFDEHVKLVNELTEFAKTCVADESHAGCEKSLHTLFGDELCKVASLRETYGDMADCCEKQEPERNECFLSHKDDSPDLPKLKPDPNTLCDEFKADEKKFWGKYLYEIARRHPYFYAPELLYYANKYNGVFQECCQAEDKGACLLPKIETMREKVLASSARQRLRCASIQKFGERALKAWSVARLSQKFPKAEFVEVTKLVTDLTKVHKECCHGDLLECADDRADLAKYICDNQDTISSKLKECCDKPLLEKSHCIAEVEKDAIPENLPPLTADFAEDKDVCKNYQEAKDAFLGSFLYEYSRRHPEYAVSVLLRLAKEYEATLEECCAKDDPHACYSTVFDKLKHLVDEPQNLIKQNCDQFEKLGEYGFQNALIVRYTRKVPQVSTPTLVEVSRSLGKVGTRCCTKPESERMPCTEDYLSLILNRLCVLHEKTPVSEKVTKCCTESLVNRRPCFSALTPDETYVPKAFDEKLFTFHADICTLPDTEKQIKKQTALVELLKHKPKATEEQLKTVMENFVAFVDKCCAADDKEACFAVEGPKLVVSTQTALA

Row | Binder | Kd [1] | koff [1] | kon [1] | binding result [2]
1 | anti-γDPGA chimpanzee monoclonal antibody 4C, full-length IgG with human γ1 constant regions (antibody, V domains shown, also called 4C IgG; IgG1 of anti-γDPGA 4C monoclonal antibody) VH: LEESGGGLVKPGDSLRLSCAASGFTFSVYAMHWVRQAPEKGLEWVSTIGAGGNTWHSDSVKGRYTIARDNSQNTLSLQMNSLRAEDTAVYYCVRRGYCSSTRCDSNDAFDIWGQGTMVTVS VL: APMTQSPSSLSASVGDRVSITCRASQDINDFLAWFQQKPGKAPKRLIFRTSSLQGGVSSRFSGSGSGTEFTLTISNLRPEDFATYYCLQHSSYPPTFGQGTKLEISR | 0.55 nM | 0.0023 s⁻¹ | 4.2e+06 M⁻¹ s⁻¹ | no binding
2 | anti-γDPGA chimpanzee monoclonal antibody 11D, full-length IgG with human γ1 constant regions (antibody, V domains shown, also called 11D IgG; CH11D-hG1) VH: LESGGGLVKPGGSLTLSCAASGFTFSTYAMHWVRQAPEKGLEWVSTIGRSGDTLYSDSVKGRFSISRDNSKNTLYLQMNSLRAEDTAVYYCARKGYCSSTNCQSQYYFDYWGQGTLVTVS VL: ELTQSPSSLSASVGGRVTITCRASQDVNTWLAWYQQKPGKAPKPLIYAASSLQGGVPSRFSGSGSGTDFTLTISSLQPEDFATYYCQQYKHYPLTFGGGTKVEIKR | 0.082 nM | 9.04e-05 s⁻¹ | 1.1e+06 M⁻¹ s⁻¹ | no binding
